In patent US20200223889A1 (Novo Nordisk, published 2020):
Positions of bridges follow the written chain, without caps; N, C: chain ends. Non-standard residues stand in square brackets, D forms with d. Cit = NC(=O)NCCC[C@H](N)C(=O)O; Api = NC1(C(=O)O)CCNCC1

B1: Chem. 53 (peptide)
peptide: cyclo(CEH[dF]HWCEH[dF]HW)
modifications: disulfide 1-7
SMILES: O=C(O)CC[C@@H]1NC(=O)[C@@H]2CSSC[C@H](NC(=O)[C@H](Cc3c[nH]c4ccccc34)NC(=O)[C@H](Cc3c[nH]cn3)NC(=O)[C@@H](Cc3ccccc3)NC(=O)[C@H](Cc3c[nH]cn3)NC1=O)C(=O)N[C@@H](CCC(=O)O)C(=O)N[C@@H](Cc1c[nH]cn1)C(=O)N[C@H](Cc1ccccc1)C(=O)N[C@@H](Cc1c[nH]cn1)C(=O)N[C@@H](Cc1c[nH]c3ccccc13)C(=O)N2
notes: also called c[c[Cys-Glu-His-D-Phe-His-Trp-Cys]-Glu-His-D-Phe-His-Trp]
B2: Chem. 62 (peptide)
peptide: cyclo(CPH[dF]HWCAKKKW)
modifications: disulfide 1-7
notes: also called c[c[Cys-Pro-His-D-Phe-His-Trp-Cys]-Ala-Lys-Lys-Lys-Trp]
B3: Chem. 60 (peptide)
peptide: cyclo(CAH[dF]HWCAKKKW)
modifications: disulfide 1-7
SMILES: C[C@@H]1NC(=O)[C@@H]2CSSC[C@H](NC(=O)[C@H](Cc3c[nH]c4ccccc34)NC(=O)[C@H](Cc3c[nH]cn3)NC(=O)[C@@H](Cc3ccccc3)NC(=O)[C@H](Cc3c[nH]cn3)NC1=O)C(=O)N[C@@H](C)C(=O)N[C@@H](CCCCN)C(=O)N[C@@H](CCCCN)C(=O)N[C@@H](CCCCN)C(=O)N[C@@H](Cc1c[nH]c3ccccc13)C(=O)N2
notes: also called c[c[Cys-Ala-His-D-Phe-His-Trp-Cys]-Ala-Lys-Lys-Lys-Trp]
B4: Chem. 71 (peptide)
peptide: cyclo(CPH[dF]HWCAKKKR)
modifications: disulfide 1-7
SMILES: C[C@@H]1NC(=O)[C@@H]2CSSC[C@H](NC(=O)[C@H](CCCNC(=N)N)NC(=O)[C@H](CCCCN)NC(=O)[C@H](CCCCN)NC(=O)[C@H](CCCCN)NC1=O)C(=O)N1CCC[C@H]1C(=O)N[C@@H](Cc1c[nH]cn1)C(=O)N[C@H](Cc1ccccc1)C(=O)N[C@@H](Cc1c[nH]cn1)C(=O)N[C@@H](Cc1c[nH]c3ccccc13)C(=O)N2
notes: also called c[c[Cys-Pro-His-D-Phe-His-Trp-Cys]-Ala-Lys-Lys-Lys-Arg]
B5: Chem. 57 (peptide)
peptide: cyclo(CAH[dF]QWCAK[dK]KW)
modifications: disulfide 1-7
SMILES: C[C@@H]1NC(=O)[C@@H]2CSSC[C@H](NC(=O)[C@H](Cc3c[nH]c4ccccc34)NC(=O)[C@H](CCC(N)=O)NC(=O)[C@@H](Cc3ccccc3)NC(=O)[C@H](Cc3c[nH]cn3)NC1=O)C(=O)N[C@@H](C)C(=O)N[C@@H](CCCCN)C(=O)N[C@H](CCCCN)C(=O)N[C@@H](CCCCN)C(=O)N[C@@H](Cc1c[nH]c3ccccc13)C(=O)N2
notes: also called c[c[Cys-Ala-His-D-Phe-Gln-Trp-Cys]-Ala-Lys-D-Lys-Lys-Trp]
B6: Chem. 50 (peptide)
peptide: cyclo(C[Api]H[dF]HWC[Api]H[dF]HW)
modifications: disulfide 1-7
SMILES: O=C1N[C@H]2CSSC[C@H](NC(=O)[C@H](Cc3c[nH]c4ccccc34)NC(=O)[C@H](Cc3c[nH]cn3)NC(=O)[C@@H](Cc3ccccc3)NC(=O)[C@H](Cc3c[nH]cn3)NC(=O)C3(CCNCC3)NC2=O)C(=O)NC2(CCNCC2)C(=O)N[C@@H](Cc2c[nH]cn2)C(=O)N[C@H](Cc2ccccc2)C(=O)N[C@@H](Cc2c[nH]cn2)C(=O)N[C@H]1Cc1c[nH]c2ccccc12
notes: also called c[c[Cys-ACP-His-D-Phe-His-Trp-Cys]-ACP-His-D-Phe-His-Trp]
B7: Chem. 1 (peptide)
peptide: cyclo(CH[dF]RWECH[dF]RWE)
modifications: disulfide 1-7
SMILES: N=C(N)NCCC[C@@H]1NC(=O)[C@@H](Cc2ccccc2)NC(=O)[C@H](Cc2c[nH]cn2)NC(=O)[C@@H]2CSSC[C@H](NC(=O)[C@H](CCC(=O)O)NC(=O)[C@H](Cc3c[nH]c4ccccc34)NC1=O)C(=O)N[C@@H](Cc1c[nH]cn1)C(=O)N[C@H](Cc1ccccc1)C(=O)N[C@@H](CCCNC(=N)N)C(=O)N[C@@H](Cc1c[nH]c3ccccc13)C(=O)N[C@@H](CCC(=O)O)C(=O)N2
notes: also called c[c[Cys-His-D-Phe-Arg-Trp-Glu-Cys]-His-D-Phe-Arg-Trp-Glu]
B8: Chem. 54 (peptide)
peptide: cyclo(CRH[dF][Cit]WCRH[dF][Cit]W)
modifications: disulfide 1-7
SMILES: N=C(N)NCCC[C@@H]1NC(=O)[C@@H]2CSSC[C@H](NC(=O)[C@H](Cc3c[nH]c4ccccc34)NC(=O)[C@H](CCCNC(N)=O)NC(=O)[C@@H](Cc3ccccc3)NC(=O)[C@H](Cc3c[nH]cn3)NC1=O)C(=O)N[C@@H](CCCNC(=N)N)C(=O)N[C@@H](Cc1c[nH]cn1)C(=O)N[C@H](Cc1ccccc1)C(=O)N[C@@H](CCCNC(N)=O)C(=O)N[C@@H](Cc1c[nH]c3ccccc13)C(=O)N2
notes: also called c[c[Cys-Arg-His-D-Phe-Cit-Trp-Cys]-Arg-His-D-Phe-Cit-Trp]
B9: Chem. 52 (peptide)
peptide: cyclo(CKH[dF]HWCKH[dF]HW)
modifications: disulfide 1-7
SMILES: NCCCC[C@@H]1NC(=O)[C@@H]2CSSC[C@H](NC(=O)[C@H](Cc3c[nH]c4ccccc34)NC(=O)[C@H](Cc3c[nH]cn3)NC(=O)[C@@H](Cc3ccccc3)NC(=O)[C@H](Cc3c[nH]cn3)NC1=O)C(=O)N[C@@H](CCCCN)C(=O)N[C@@H](Cc1c[nH]cn1)C(=O)N[C@H](Cc1ccccc1)C(=O)N[C@@H](Cc1c[nH]cn1)C(=O)N[C@@H](Cc1c[nH]c3ccccc13)C(=O)N2
notes: also called c[c[Cys-Lys-His-D-Phe-His-Trp-Cys]-Lys-His-D-Phe-His-Trp]
B10: Chem. 55 (peptide)
peptide: cyclo(CKH[dF][Cit]WCKH[dF][Cit]W)
modifications: disulfide 1-7
SMILES: NCCCC[C@@H]1NC(=O)[C@@H]2CSSC[C@H](NC(=O)[C@H](Cc3c[nH]c4ccccc34)NC(=O)[C@H](CCCNC(N)=O)NC(=O)[C@@H](Cc3ccccc3)NC(=O)[C@H](Cc3c[nH]cn3)NC1=O)C(=O)N[C@@H](CCCCN)C(=O)N[C@@H](Cc1c[nH]cn1)C(=O)N[C@H](Cc1ccccc1)C(=O)N[C@@H](CCCNC(N)=O)C(=O)N[C@@H](Cc1c[nH]c3ccccc13)C(=O)N2
notes: also called c[c[Cys-Lys-His-D-Phe-Cit-Trp-Cys]-Lys-His-D-Phe-Cit-Trp]
B11: Chem. 51 (peptide)
peptide: cyclo(CEH[dF]RWCEH[dF]RW)
modifications: disulfide 1-7
SMILES: N=C(N)NCCC[C@@H]1NC(=O)[C@@H](Cc2ccccc2)NC(=O)[C@H](Cc2c[nH]cn2)NC(=O)[C@H](CCC(=O)O)NC(=O)[C@@H]2CSSC[C@H](NC(=O)[C@H](Cc3c[nH]c4ccccc34)NC1=O)C(=O)N[C@@H](CCC(=O)O)C(=O)N[C@@H](Cc1c[nH]cn1)C(=O)N[C@H](Cc1ccccc1)C(=O)N[C@@H](CCCNC(=N)N)C(=O)N[C@@H](Cc1c[nH]c3ccccc13)C(=O)N2
notes: also called c[c[Cys-Glu-His-D-Phe-Arg-Trp-Cys]-Glu-His-D-Phe-Arg-Trp]
B12: Chem. 5 (peptide)
peptide: cyclo(CH[dF]RWACH[dF]RWA)
modifications: disulfide 1-7
SMILES: C[C@@H]1NC(=O)[C@H](Cc2c[nH]c3ccccc23)NC(=O)[C@H](CCCNC(=N)N)NC(=O)[C@@H](Cc2ccccc2)NC(=O)[C@H](Cc2c[nH]cn2)NC(=O)[C@@H]2CSSC[C@H](NC1=O)C(=O)N[C@@H](Cc1c[nH]cn1)C(=O)N[C@H](Cc1ccccc1)C(=O)N[C@@H](CCCNC(=N)N)C(=O)N[C@@H](Cc1c[nH]c3ccccc13)C(=O)N[C@@H](C)C(=O)N2
notes: also called c[c[Cys-His-D-Phe-Arg-Trp-Ala-Cys]-His-D-Phe-Arg-Trp-Ala]

Tests used:
[1] = biological target: T1, human melanocortin 4 receptor (human, UniProt P32245 1-332); test: cell-based or functional assay
[2] = biological target: human melanocortin 1 receptor (human, UniProt Q01726 1-317); test: cell-based or functional assay
[3] = biological target: T1, human melanocortin 4 receptor; test: competition with 125-NDP-α-MSH, BHK human MC4R membranes
Experimental: In order to assess the binding affinity of the selected compounds for the human MC4R competitive binding assays was performed with radiolabeled NDP-alpha MSH (¹²⁵NDP-α-MSH).
The assay was performed in 96-well filterplates (Unifilter) using BHK cells stably expressing the human MC4 receptor.
The BHK cell membranes were prepared from frozen or fresh cells that were homogenized in 20 mM HEPES pH 7.1, 5 mM MgCl₂, 1 mg/ml bacitracin (buffer 1) and centrifuged at 15000 rpm at 4° C., 10 min in a Sorvall RC 5B plus, SS-34 rotor. The supernatant was discarded, and the pellets were re-suspended in buffer 1, homogenized and centrifuged two more times. The final pellets were re-suspended in buffer 1 and the protein concentration was measured and adjusted with buffer 1 to 5 mg/ml and the membrane preparation was kept at −80° C. until assay. The assay was run on a dilution of this cell membrane suspension without any further preparation. The suspension was diluted to give maximally 10% specific binding, i.e. to approx. 50-100 fold dilution, optimized after each membrane preparation. The assay was performed in a total volume of 200 μl: 50 μl of cell suspension, 50 μl of ¹²⁵NDP-α-MSH (apx. […] in final concentration), 50 μl of test compound and 50 μl binding buffer were mixed and incubated for 2 h at 25° C. (binding buffer: 25 mM HEPES, pH 7.0, 1 mM CaCl₂), 1 mM MgSO₄, 1 mM EGTA, 0.005% Tween™ 20 and 0.1% HSA or, alternatively, 0.1% ovalbumin (Sigma; catalogue No. A-5503)). Test compounds were dissolved in 100% DMSO and diluted in binding buffer in a dose range from 1 μM to 0.001 nM. Radiolabelled ligand and membranes were diluted in binding buffer. The incubation was stopped by dilution with 8×100 μl ice-cold 0.9% NaCl. The radioactivity retained on the filters was counted using a Packard Topcounter. The data were analysed by non-linear regression analysis of binding curves, using the Windows™ program GraphPad™ Prism (GraphPad Software, USA).

T1 sequence (P32245 whole entry): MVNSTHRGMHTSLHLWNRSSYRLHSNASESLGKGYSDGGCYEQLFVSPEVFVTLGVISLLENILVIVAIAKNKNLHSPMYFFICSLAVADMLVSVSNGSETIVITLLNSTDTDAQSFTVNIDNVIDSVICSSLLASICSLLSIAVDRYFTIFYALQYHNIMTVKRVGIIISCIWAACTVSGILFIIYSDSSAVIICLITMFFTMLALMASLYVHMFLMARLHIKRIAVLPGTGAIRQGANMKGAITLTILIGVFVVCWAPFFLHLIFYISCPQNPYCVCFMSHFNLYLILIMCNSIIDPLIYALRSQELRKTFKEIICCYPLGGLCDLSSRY
human melanocortin 1 receptor, sequence (Q01726 whole entry): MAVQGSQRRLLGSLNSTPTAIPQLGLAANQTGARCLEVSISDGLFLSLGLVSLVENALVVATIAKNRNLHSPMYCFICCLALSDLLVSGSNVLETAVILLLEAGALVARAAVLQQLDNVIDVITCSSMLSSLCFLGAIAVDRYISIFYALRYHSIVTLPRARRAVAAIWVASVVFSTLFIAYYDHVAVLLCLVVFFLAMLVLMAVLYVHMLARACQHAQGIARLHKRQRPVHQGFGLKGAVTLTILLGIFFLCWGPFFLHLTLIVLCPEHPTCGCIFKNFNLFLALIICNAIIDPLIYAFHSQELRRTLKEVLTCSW

Row | Binder | MC4R cAMP EC50 [1] [pM] | MC1R cAMP EC50 [2] [pM] | Ki [3] [pM]
1 | B1 | 11000 | > 10000 | 9470
2 | B2 | 170 | > 1000 | 130
3 | B3 | 170 | 53300 | 100
4 | B4 | 80 | 33200 | 50
5 | B5 | 190 | 10400 | 210
6 | B6 | 1170 | 66200 | 20000
7 | B7 | 14900 | 198000 | 47900
8 | B8 | 40 | 290 | 210
9 | B9 | 230 | 47700 | 760
10 | B10 | 100 | 4140 | 330
11 | B11 | 200 | 2690 | 500
12 | B12 | 210 | 6470 | 990
